Consider two molecules from patent US20230122079A1.

For test [1], the target named is recombinant IL12 (Peprotech) (human) (UniProt P29460). Briefly: SPR; SPR binding to immobilized IL12; kinetics post-digest with Matriptase; ka near instrument detection limit. (In general: In SPR one partner is held on a chip, and binding of the other changes the refractive index at the surface.)
Test [2] has the same target. Briefly: SPR; SPR binding to immobilized IL12; kinetics post-digest with Matriptase.

Sequence of recombinant IL12 (Peprotech) (human) (P29460 23-328 limits assumed, chain 1 of 2): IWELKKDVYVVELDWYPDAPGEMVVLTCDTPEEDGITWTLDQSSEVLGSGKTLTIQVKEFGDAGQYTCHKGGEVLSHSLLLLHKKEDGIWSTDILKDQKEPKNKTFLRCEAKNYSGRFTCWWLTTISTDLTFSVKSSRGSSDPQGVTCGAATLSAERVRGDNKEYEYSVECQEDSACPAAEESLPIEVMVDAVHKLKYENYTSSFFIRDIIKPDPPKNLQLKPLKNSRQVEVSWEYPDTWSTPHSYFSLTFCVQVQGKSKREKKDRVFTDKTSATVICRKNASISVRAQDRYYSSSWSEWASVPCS
Sequence of recombinant IL12 (Peprotech) (human) (chain, as listed by the source limits assumed, chain 2 of 2): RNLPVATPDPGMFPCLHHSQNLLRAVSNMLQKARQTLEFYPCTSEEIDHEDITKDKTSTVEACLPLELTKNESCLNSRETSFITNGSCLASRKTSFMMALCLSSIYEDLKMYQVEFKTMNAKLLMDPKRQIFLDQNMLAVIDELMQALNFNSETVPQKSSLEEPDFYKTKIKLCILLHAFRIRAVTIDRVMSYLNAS

B1: v32909 digested with Matriptase (Fc fusion)
chain 1: SANAGGGGSGGGGSQVQLVESGGGVVQPGRSLRLSCAASGFTFSSYGMHWVRQAPGKGLEWVAFIRYDGSNKYYADSVKGRFTISRDNSKNTLYLQMNSLRAEDTAVYYCKTHGSHDNWGQGTMVTVSSGGGGSMSGR
chain 2: SANAGGGGSGGGGSQSVLTQPPSVSGAPGQRVTISCSGSRSNIGSNTVKWYQQLPGTAPKLLIYYNDQRPSGVPDRFSGSKSGTSASLAITGLQAEDEADYYCQSYDRYTHPALLFGTGTKVTVL
As for B1, the kon (commonly the second-order rate constant of association) in test [1] turned out to be 4.19e+07 M⁻¹ s⁻¹. For the same molecule, in test [2], the Kd (usually the concentration at which binding is half-saturated) is 1.47 pM and the koff – broadly, a measure of how fast the partners let go of each other – worked out at 6.48e-05 s⁻¹.

B2: v32910 digested with Matriptase (Fc fusion)
chain: SANAGGGGSGGGGSQVQLVESGGGVVQPGRSLRLSCAASGFTFSSYGMHWVRQAPGKGLEWVAFIRYDGSNKYYADSVKGRFTISRDNSKNTLYLQMNSLRAEDTAVYYCKTHGSHDNWGQGTMVTVSSGGGGSGGGSGGGSGGGGSGGGGSQSVLTQPPSVSGAPGQRVTISCSGSRSNIGSNTVKWYQQLPGTAPKLLIYYNDQRPSGVPDRFSGSKSGTSASLAITGLQAEDEADYYCQSYDRYTHPALLFGTGTKVTVL
On to B2, for which, in test [1], the kon amounted to 8.65e+06 M⁻¹ s⁻¹. Besides, in test [2], the Kd was found to be 5.37 pM and the koff worked out at 4.68e-05 s⁻¹.
